Assay: soluble on expression in E. coli; label from the status in PepcDB or PDB records

Sequence | soluble on expression in E. coli
MGEAAVAEGPCPLLEDSFTRFSSQSNVYGLAGGADGRGELLAATLKGKVLGFRYQDLRQKIRPVAKELQFNYIPVDAEIVSIDTFNKSPPKRGLVVGITFIKDSGDKGSPFLNIYCDYEPGSEYNLDSIAESCLNLELQFTPFQLCHAEVQVGDQLETVFLLSGNDPAIHLYKENEGLHQFEEQPVENLFPELTNLTSSVLWLDVHNLPGSSQRLSALGCQSGYVRVAHVDQKNQEILQTWTIQQDGPISRVIVFSLSASEATQDSPQQEGYSLLVASMLEPAVVYWDLLNKGLDDQLLLPGSDQFDSVLCGLVTDVDLDGQLEVLVATYGQELLCYKYRGLPEDSRGFRLLWRRSFASPLLAMAHVDLTGDGLRELAVISLKGVHILQHSLIQASELVLTRLRHQVEQRKHQQGLGDRVGPRPVEHPAS | soluble
MGEAVEVMFGNGFPEIHKATSPTQTLHSNQQDCHWYEETIDDDLKWSFALNSVLHQGTSEYQDIALLDTKRFGKVLVIDGKMQSAERDEFIYHECLIHPALLFHPNSPKTVFIMGGGEGSAAREILKHTTIEKVVMCDIDQEVVDFCRRFLTVNSDAFCNKKLELVIKDAKAELEKREEKFDIIVGDLADPVEGGPCYQLYTKSFYQNILKPKLSPNGIFVTQAGPAGIFTHKEVFTSIYNTMKQVFKYVKAYTAHVPSFADTWGWVMASDHEFDVEVDEMDRRIEERVNGELMYLNAPSFVSAATLNKTISLALEKETEVYSEENARFIHGHGVAYRHI | soluble
MGENSLWNVYKTVSFWKVMKNFIIIQIARYTPCLSVKNWLYRTFLRMKVGKKTSFALMVMPDIMFPEKITVGENSIIGYNTTLLAHEYLIREYRLGEIVIGNEVMIGANVTILPGVKIGDGATVSAGTLVHRDVPSGAFVGGNPMRIIYTKEQMTAREGLEHHHHHH | not soluble
MGFDASVLKSVLEQFVDEIGEESVDLIEDRPRFAHAVVVVTDDATGELCQASCIRQLDDVILHETSVANVTSEWMDEEIQRALRELTESRELLDTPRNSVFVEEKHEKQKTVTTTTTSTETSRNTSSRVEFPSMARRTRSTSAARRFN | not soluble
MGGDSVAIFTADMSVSGELRNDIELHLRRGIESDALRLVYLPEVDLRTGDIVGTEALVRWQHPTRGLLAPGCFIPVAESINLAGELDRWVLRRACNEFSEWQSAGLGHDALLRINVSAGQLVTGGFVDFVADTIGQHGLDASSVCLEITENVVVQDLHTARATLARLKEVGVHIAIDDFGTGYSAISLLQTLPIDTLKIDKTFVRQLGTNTSDLVIVRGIMTLAEGFQLDVVAEGVETEAAARILLDQRCYRAQGFLFSRPVPGEAMRHMLSARRLPPTCILEHHHHHH | not soluble
MGGIARLYGDSALAHFSQAHVCVVGVGGVGSWAVEALARTGIGRLTLIDLDNVAESNVNRQLHALTGDFGKAKVTALRERITQINPQCEVFEIEDFVTEDNLPEYFGKGFDFVIDAIDQVRVKAAMAAYFVERKQPFVLSGGAGGQKNPALIQTADLSRVTHDPLLANLRYTLRKRYGFSRDTKANMRVPCVYSTENIVPPQSREACSADAAPQGLSCAGYGASMLVTASFGLYCAQAAVEHIADKKLEHHHHHH | not soluble
MGGSFGKKGASSATAAQVPLATETTPGLMSPSEKLKLSTLTTSIATSDFYASYDFMMHSIGLTSANNISLLSTGNISLQNILSEGNHFGVQPIVSSTTANASFLAGMLMAIFPKESELEVTVYFKTPSAFNPAQLTVIGSTSIGLGISDRSGLIIENGNAFGGIVKASAATETGSTYALSTSTWYICKFKMLTDDRFKVTLYSDSGTQLYSYTSTAAMFRADNATAHIGFKTQCKTATAGISLISIDLIEFKAKVSATRAKV | soluble
MGGSHHHHHHGMASALDPAGGPRGVLPRPCRVLVLLNPRGGKGKALQLFRSHVQPLLAEAEISFTLMLTERRNHARELVRSEELGRWDALVVMSGDGLMHEVVNGLMERPDWETAIQKPLCSLPAGSGNALAASLNHYAGYEQVTNEDLLTNCTLLLCRRLLSPMNLLSLHTASGLRLFSVLSLAWGFIADVDLESEKYRRLGEMRFTLGTFLLLAALRTYRGRLAYLPVGRVGSKTPASPVVVQQGPVDAHLVPLEEPVPSHWTVVPDEDFVLVLALLHSHLGSEMFAAPMGRCAAGVMHLFYVRAGVSRAMLLRLFLAMEKGRHMEYECPYLVYVPVVAFRLEPKDGKGVFAVDGELMVSEAVQGQVHPNYFWMVSGCVEPPPSWKPQQMPPPEEPL | not soluble
MGGSHHHHHHGMASALFRMLNSSFEDDPFFSESILAHRENMRQMIRSFSEPFGRDLLSISDGRGRAHNRRGHNDGEDSLTHTDVSSFQTMDQMVSNMRNYMQKLERNFGQLSVDPNGHSFCSSSVMTYSKIGDEPPKVFQASTQTRRAPGGIKETRKAMRDSDSGLEKMAIGHHIHDRAHVIKKSKNKKTGDEEVNQEFINMNESDAHAFDEEWQSEVLKYKPGRHNLGNTRMRSVGHENPGSRELKRREKPQQSPAIEHGRRSNVLGDKLHIKGSSVKSNKK | not soluble
MGGSHHHHHHMASSVPIPGIKDISKLKFFYGFKYLWNPTVYNKIFDKLDLTKTYKHPEELKVLDLYPGVGIQSAIFYNKYCPRQYSLLEKRSSLYKFLNAKFEGSPLQILKRDPYDWSTYSNLIDEERIFVPEVQSSDHINDKFLTVANVTGEGSEGLIMQWLSCIGNKNWLYRFGKVKMLLWMPSTTARKLLARPGMHSRSKCSVVREAFTDTKLIAISDANELKGFDSQCIEEWDPILFSAAEIWPTKGKPIALVEMDPIDFDFDVDNWDYVTRHLMILKRTPLNTVMDSLGHGGQQYFNSRITDKDLLKKCPIDLTNDEFIYLTKLFMEWPFKPDILMDFVDMYQTEHSG | soluble
MGGTSYLIVGNEGNILIDCPALDQTNLNFLRSHGGVRWLFLTHRGAIGRTAEIQQNYGCDILIQEQEAYLLPGLTVTTFTQEFAVTPTAKAIWTPGHSPGSSCLYYNHQGGVLFSGRHLLPNQKGEPVPLRTAKTFHWPRQIKSLQTILETLTPETLQYICPGANTGFLRGKRSIDTAYQRLASLDLKALLQTQPLEHHHHHH | not soluble
MGHDIDQVAPLLREPANFQLRTNCDPHEDNFGLRAHGPLVRIVGESSTQLGRDFVWQAHGYEVVRRILGDHEHFTTRPQFTQSKSGAHVEAQFVGQISTYDPPEHTRLRKMLTPEFTVRRIRRMEPAIQSLIDDRLDLLEAEGPSADLQGLFADPVGAHALCELLGIPRDDQREFVRRIRRNADLSRGLKARAADSAAFNRYLDNLLARQRADPDDGLLGMIVRDHGDNVTDEELKGLCTALILGGVETVAGMIGFGVLALLDNPGQIELLFESPEKAERVVNELVRYLSPVQAPNPRLAIKDVVIDGQLIKAGDYVLCSILMANRDEALTPDPDVLDANRAAVSDVGFGHGIHYCVGAALARSMLRMAYQTLWRRFPGLRLAVPIEEVKYRSAFVDCPDQVPVTW | soluble
MGHHHHHHAIAENLYFQSKLVEKTTTTEQDNGEDFCRTIIEVSEVNRNVFQAPGGEADPFRVVSGEELHLIPPLNFSMVDNGIFRSGFPDSANFSFLQTLGLRSIIYLCPEPYPESNLQFLKSNGIRLFQFGIEGNKEPFVNIPDHKIRMALKVLLDEKNHPVLIHCKRGKHRTGCLVGCLRKLQKWCLTSIFDEYQRFAAAKARVSDQRFMEIFDVSSFSHIPMSFSCSIR | soluble
MGHHHHHHSHALPAGEWGTVQLRGSWRVGQTAGGSRNFASYPTNPCFPFSVPEGPGPRCVRITLHQHCRPSDTEFHPIGFHIFQVPEGGRSQDAPPLLLQEPLLSCVPHRYAQEVSRLCLLPAGTYKVVPSTYLPDTEGAFTVTIATRIDRPSIHSQEMLGQFLQEVSVMAVMKT | soluble
MGHHHHHHSHCDSDCLWVGLAGPQILPPCRSIVRTLHQHKLGRASWPSVQQGLQQSFLHTLDSYRILQKAAPFDRRATSLAWHPTHPSTVAVGSKGGDIMLWNFGIKDKPTFIKGIGAGGSITGLKFNPLNTNQFYASSMEGTTRLQDFKGNILRVFASSDTINIWFCSLDVSASSRMVVTGDNVGNVILLNMDGKELWNLRMHKKKVTHVALNPCCDWFLATASVDQTVKIWDLRQVRGKASFLYSLPHRHPVNAACFSPDGARLLTTDQKSEIRVYSASQWDCPLGLIPHPHRHFQHLTPIKAAWHPRYNLIVVGRYPDPNFKSCTPYELRTIDVFDGNSGKMMCQLYDPESSGISSLNEFNPMGDTLASAMGYHILIWSQEEARTRK | not soluble
MGHHHHHHSHGSHVKVKSFEKERQTEKRVLETELVDHVLQKLRTKVTDERNGREASDNLAVQNLKGSFSNASGLFEIHGATVVPIVSVLAPEKLSASTRRRYETQVQTRLQTSLANLHQKSSEIEILAVDLPKETILQFLSLEWDADEQAFNTTVKQLLSRLPKQRYLKLVCDEIYNIKVEKKVSVLFLYSYRDDYYRILF | not soluble
MGHHHHHHSHGSSAEIAATLGLPVVLVVDVRGMSQSVGAVVRGFATADPHVRIAGVILNKVGTDRHAEVCREAVEAVGVRVLGAIP | not soluble
MGHHHHHHSHKELQRRRRSLALPGLQGCAELRQKLSLNFHSLCEQQPIGRRLFRDFLATVPTFRKAATFLEDVQNWELAEEGPTKDSALQGLVATCASAPAPGNPQPFLSQAVATKCQAATTEEERVAAVTLAKAEAMAFLQEQPFKDFVTSAFYDKFLQWKLFEMQPVSDKYFTEFRVLGKGGFGEVCAVQVKNTGKMYACKKLDK | soluble
MGHHHHHHSHKLEEAYEPNQVAISLIGEPTLYPMLPELIEEYKKRGFTTFLVTNGTNPDMLEKVKPTQLYLSLTAFDEDSHLVLNRPGKSNWERVLRSLEVMRDSGSRTVIRLTLIRGYNMDEEAIRKYSELIEMAEPDFIEAKAYMYLGYSRLRLRWGNMPEHADIVEFSRKLADSTGYEVKRESEPSRVVL | not soluble
MGHHHHHHSHLSFHFPPRVTGHPWSLVFCTSRDGFSLQSLYRRMEGCSGPVLLVLRDQDGQIFGAFSSSAIRLSKGFYGTGETFLFSFSPQLKVFKWTGSNSFFVKGDLDSLMMGSGSGRFGLWLDGDLFRGGSSPCPTFNNEVLARQEQFCIQELEAWLLS | not soluble
MGHHHHHHSHMAAPPQLRALLVVVNALLRKRRYHAALAVLKGFRNGAVYGAKIRAPHALVMTFLFRNGSLQEKLWAILQATYIHSWNLARFVFTYKGLRALQSYIQGKTYPAHAFLAAFLGGILVFGENNNINSQINMYLLSRVLFALSRLAVEKGYIPEPRWDPFPLLTAVVWGLVLWLFEYHRSTLQPSLQSSMTYLYEDSNVWHDISDFLIYNKSRPSN | not soluble
MGHHHHHHSHMAEAKPDVWKSYNVGTVLFEDKASETKGSDIYHRIIPDAESYIKEQARTVLATLYNSPEDSITPVNKIHYTLEDIEGISAKGGGNGDVTIFYSTRHIEKSFAENDTAKLFFETRGVLLHELTHAYQLEPQGIGSYGTNRVFWAFIEGMADAVRVANGGFDGPNARPKGGNYMDGYRTAGYFFVWLRDNKDPEFLRKFNRSTLEVIPWSFDGAIKHILGTEYSIDELWHEYQVAVGDIQV | soluble
MGHHHHHHSHMAFFRRSLMTENAVLQLRAERIARATRPFLARGNRVRRCQRCLLPEKLCLCSTITPAQAKSRFCLLMFDTEPMKPSNTGRLIADILPDTVAFQWSRTEPSQDLLELVQNPDYQPMVVFPASYADEQREVIFTPPAGKPPLFIMLDGTWPEARKMFRKSPYLDNLPVISVDLSRLSAYRLREAQAEGQYCTAEVAIALLDMAGDTGAAAGLGEHFTRFKTRYLAGKTQHLGSITAEQLESV | soluble
MGHHHHHHSHMARLILERFLQEHEETPPSKSIINSMLRDPSQIPDGVLANQVYQCIVNDCCYGPLVDCIKHAIGHEHEVLLRDLLLEKNLSFLDEDQLRAKGYDKTPDFILQVPVAVEGHIIHWIESKASFGDECSHHAYLHDQFWSYWNRFGPGLVIYWYGFIQELDCNRERGILLKACFPTNIVTLCHSIA | not soluble
